Measurements from the RNAGym collection of RNA variant scans (doi:10.1093/molbev/msab373).

B1: Azoarcus group I ribozyme (parent)
chain: GUGCCUUGCGCCGGGAAACCACGCAAGGGAUGGUGUCAAAUUCGGCGAAACCUAAGCGCCCGCCCGGGCGUAUGGCAACGCCGAGCCAAGCUUCGGCGCCUGCGCCGAUGAAGGUGUAGAGACUAGACGGCACCCACCUAAGGCAAACGCUAUGGUGAAGGCAUAGUCCAGGGAGUGGCGAAAGUCACACAAACCGG

Variants of: B1
Test: reverse-splicing fitness (ratio to wild type); higher = more active; in vitro selection; Mg2+ level not given
Procedure, shortened: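 An in vitro group I ribozyme library with randomized positions was T7-transcribed and gel-purified. In triplicate, 10 pmol RNA in EPPS pH 7.5 was reacted with 50 pmoles of a 30-nt RNA substrate for 1 h at 37 °C across several added MgCl2 levels (1–48 mM), then stopped with EDTA. Products were reverse transcribed from a substrate-complementary primer, PCR-amplified and sequenced (HiSeq 4000). Fitness is a variant's read proportion after selection over that before, normalised to wild type.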

Row | Variant | reverse-splicing fitness
1 | GUGCCUUGCGCCGGGAAACCACGCAAGGGAUGGUGUCAAAUUCGGCGAAACCUAAGCGCCCGCCCGGGCGUAUGGCAACGCUGAGCCAAGCUUCGGCGCCUGCGCCGAUGCAGGUGUAGCGACUAGACGGCACCCACCUAAGGCGAACGAUAUGGUGAAGGCAUAGUCUAGGGAGUGGCGAAAGUCACACAAACCGG | 0.0103
2 | GUGCCUUGCGCCGGGAAACCACGCAAGGGAUGGUGUCAAAUUCGGCGAAACCUAAGCGCCCGCCCGGGCGUAUGGCAACGCUGAGCCAAGCUUCGGCGCCUGCGCCGAUGCAGGUGUAGCGACUAGACGGCACCCACCUAAGGCGAACGAUAUGGUGAAGGCAUAGUCUAGGGAGAGGCGAAAGUCACACAAACCGG | 0.0176
3 | GUGCCUUGCGCCGGGAAACCACGCAAGGGAUGGUGUCAAAUUCGGCGAAACCUAAGCGCCCGCCCGGGCGUAUGGCAACGCUGAGCCAAGCUUCGGCGCCUGCGCCGAUGCAGGUGUAGCGACUAGACGGCACCCACCUAAGGCGAACGAUAUGGUGAAGGCAUAGUCUAGGGAGCGGCGAAAGUCACACAAACCGG | 0.0172
4 | GUGCCUUGCGCCGGGAAACCACGCAAGGGAUGGUGUCAAAUUCGGCGAAACCUAAGCGCCCGCCCGGGCGUAUGGCAACGCUGAGCCAAGCUUCGGCGCCUGCGCCGAUGCAGGUGUAGCGACUAGACGGCACCCACCUAAGGCGAACGAUAUGGUGAAGGCAUAGUCUAGGGAGGGGCGAAAGUCACACAAACCGG | 0.00639
5 | GUGCCUUGCGCCGGGAAACCACGCAAGGGAUGGUGUCAAAUUCGGCGAAACCUAAGCGCCCGCCCGGGCGUAUGGCAACGCUGAGCCAAGCUUCGGCGCCUGCGCCGAUGCAGGUGUAGCGACUAGACGGCACCCACCUAAGGCGAACGAUAUGGUGAAGGCAUAGUCCAGGGAGAGGCGAAAGUCACACAAACCGG | 0.00976
6 | GUGCCUUGCGCCGGGAAACCACGCAAGGGAUGGUGUCAAAUUCGGCGAAACCUAAGCGCCCGCCCGGGCGUAUGGCAACGCUGAGCCAAGCUUCGGCGCCUGCGCCGAUGCAGGUGUAGCGACUAGACGGCACCCACCUAAGGCGAACGAUAUGGUGAAGGCAUAGUCCAGGGAGCGGCGAAAGUCACACAAACCGG | 0.0208
7 | GUGCCUUGCGCCGGGAAACCACGCAAGGGAUGGUGUCAAAUUCGGCGAAACCUAAGCGCCCGCCCGGGCGUAUGGCAACGCUGAGCCAAGCUUCGGCGCCUGCGCCGAUGCAGGUGUAGCGACUAGACGGCACCCACCUAAGGCGAACGAUAUGGUGAAGGCAUAGUCCAGGGAGGGGCGAAAGUCACACAAACCGG | 0.00689
8 | GUGCCUUGCGCCGGGAAACCACGCAAGGGAUGGUGUCAAAUUCGGCGAAACCUAAGCGCCCGCCCGGGCGUAUGGCAACGCUGAGCCAAGCUUCGGCGCCUGCGCCGAUGCAGGUGUAGCGACUAGACGGCACCCACCUAAGGCGAACGGUAUGGUGAAGGCAUAGUCCAGGGAGUGGCGAAAGUCACACAAACCGG | 0.0102
9 | GUGCCUUGCGCCGGGAAACCACGCAAGGGAUGGUGUCAAAUUCGGCGAAACCUAAGCGCCCGCCCGGGCGUAUGGCAACGCUGAGCCAAGCUUCGGCGCCUGCGCCGAUGCAGGUGUAGCGACUAGACGGCACCCACCUAAGGCGAACGGUAUGGUGAAGGCAUAGUCAAGGGAGUGGCGAAAGUCACACAAACCGG | 0.0079
10 | GUGCCUUGCGCCGGGAAACCACGCAAGGGAUGGUGUCAAAUUCGGCGAAACCUAAGCGCCCGCCCGGGCGUAUGGCAACGCUGAGCCAAGCUUCGGCGCCUGCGCCGAUGCAGGUGUAGCGACUAGACGGCACCCACCUAAGGCGAACGGUAUGGUGAAGGCAUAGUCAAGGGAGAGGCGAAAGUCACACAAACCGG | 0.0111
11 | GUGCCUUGCGCCGGGAAACCACGCAAGGGAUGGUGUCAAAUUCGGCGAAACCUAAGCGCCCGCCCGGGCGUAUGGCAACGCUGAGCCAAGCUUCGGCGCCUGCGCCGAUGCAGGUGUAGCGACUAGACGGCACCCACCUAAGGCGAACGGUAUGGUGAAGGCAUAGUCAAGGGAGCGGCGAAAGUCACACAAACCGG | 0.0116
12 | GUGCCUUGCGCCGGGAAACCACGCAAGGGAUGGUGUCAAAUUCGGCGAAACCUAAGCGCCCGCCCGGGCGUAUGGCAACGCUGAGCCAAGCUUCGGCGCCUGCGCCGAUGCAGGUGUAGCGACUAGACGGCACCCACCUAAGGCGAACGGUAUGGUGAAGGCAUAGUCAAGGGAGGGGCGAAAGUCACACAAACCGG | 0.00708
13 | GUGCCUUGCGCCGGGAAACCACGCAAGGGAUGGUGUCAAAUUCGGCGAAACCUAAGCGCCCGCCCGGGCGUAUGGCAACGCUGAGCCAAGCUUCGGCGCCUGCGCCGAUGCAGGUGUAGCGACUAGACGGCACCCACCUAAGGCGAACGGUAUGGUGAAGGCAUAGUCGAGGGAGUGGCGAAAGUCACACAAACCGG | 0.00708
14 | GUGCCUUGCGCCGGGAAACCACGCAAGGGAUGGUGUCAAAUUCGGCGAAACCUAAGCGCCCGCCCGGGCGUAUGGCAACGCUGAGCCAAGCUUCGGCGCCUGCGCCGAUGCAGGUGUAGCGACUAGACGGCACCCACCUAAGGCGAACGGUAUGGUGAAGGCAUAGUCGAGGGAGAGGCGAAAGUCACACAAACCGG | 0.00967
15 | GUGCCUUGCGCCGGGAAACCACGCAAGGGAUGGUGUCAAAUUCGGCGAAACCUAAGCGCCCGCCCGGGCGUAUGGCAACGCUGAGCCAAGCUUCGGCGCCUGCGCCGAUGCAGGUGUAGCGACUAGACGGCACCCACCUAAGGCGAACGGUAUGGUGAAGGCAUAGUCGAGGGAGCGGCGAAAGUCACACAAACCGG | 0.011
16 | GUGCCUUGCGCCGGGAAACCACGCAAGGGAUGGUGUCAAAUUCGGCGAAACCUAAGCGCCCGCCCGGGCGUAUGGCAACGCUGAGCCAAGCUUCGGCGCCUGCGCCGAUGCAGGUGUAGCGACUAGACGGCACCCACCUAAGGCGAACGGUAUGGUGAAGGCAUAGUCGAGGGAGGGGCGAAAGUCACACAAACCGG | 0.00542
17 | GUGCCUUGCGCCGGGAAACCACGCAAGGGAUGGUGUCAAAUUCGGCGAAACCUAAGCGCCCGCCCGGGCGUAUGGCAACGCUGAGCCAAGCUUCGGCGCCUGCGCCGAUGCAGGUGUAGCGACUAGACGGCACCCACCUAAGGCGAACGGUAUGGUGAAGGCAUAGUCUAGGGAGUGGCGAAAGUCACACAAACCGG | 0.00816
18 | GUGCCUUGCGCCGGGAAACCACGCAAGGGAUGGUGUCAAAUUCGGCGAAACCUAAGCGCCCGCCCGGGCGUAUGGCAACGCUGAGCCAAGCUUCGGCGCCUGCGCCGAUGCAGGUGUAGCGACUAGACGGCACCCACCUAAGGCGAACGGUAUGGUGAAGGCAUAGUCUAGGGAGAGGCGAAAGUCACACAAACCGG | 0.0111
19 | GUGCCUUGCGCCGGGAAACCACGCAAGGGAUGGUGUCAAAUUCGGCGAAACCUAAGCGCCCGCCCGGGCGUAUGGCAACGCUGAGCCAAGCUUCGGCGCCUGCGCCGAUGCAGGUGUAGCGACUAGACGGCACCCACCUAAGGCGAACGGUAUGGUGAAGGCAUAGUCUAGGGAGCGGCGAAAGUCACACAAACCGG | 0.0122
20 | GUGCCUUGCGCCGGGAAACCACGCAAGGGAUGGUGUCAAAUUCGGCGAAACCUAAGCGCCCGCCCGGGCGUAUGGCAACGCUGAGCCAAGCUUCGGCGCCUGCGCCGAUGCAGGUGUAGCGACUAGACGGCACCCACCUAAGGCGAACGGUAUGGUGAAGGCAUAGUCUAGGGAGGGGCGAAAGUCACACAAACCGG | 0.007
21 | GUGCCUUGCGCCGGGAAACCACGCAAGGGAUGGUGUCAAAUUCGGCGAAACCUAAGCGCCCGCCCGGGCGUAUGGCAACGCUGAGCCAAGCUUCGGCGCCUGCGCCGAUGCAGGUGUAGCGACUAGACGGCACCCACCUAAGGCGAACGGUAUGGUGAAGGCAUAGUCCAGGGAGAGGCGAAAGUCACACAAACCGG | 0.00676
22 | GUGCCUUGCGCCGGGAAACCACGCAAGGGAUGGUGUCAAAUUCGGCGAAACCUAAGCGCCCGCCCGGGCGUAUGGCAACGCUGAGCCAAGCUUCGGCGCCUGCGCCGAUGCAGGUGUAGCGACUAGACGGCACCCACCUAAGGCGAACGGUAUGGUGAAGGCAUAGUCCAGGGAGCGGCGAAAGUCACACAAACCGG | 0.00988
23 | GUGCCUUGCGCCGGGAAACCACGCAAGGGAUGGUGUCAAAUUCGGCGAAACCUAAGCGCCCGCCCGGGCGUAUGGCAACGCUGAGCCAAGCUUCGGCGCCUGCGCCGAUGCAGGUGUAGCGACUAGACGGCACCCACCUAAGGCGAACGGUAUGGUGAAGGCAUAGUCCAGGGAGGGGCGAAAGUCACACAAACCGG | 0.00622
24 | GUGCCUUGCGCCGGGAAACCACGCAAGGGAUGGUGUCAAAUUCGGCGAAACCUAAGCGCCCGCCCGGGCGUAUGGCAACGCUGAGCCAAGCUUCGGCGCCUGCGCCGAUGCAGGUGUAGCGACUAGACGGCACCCACCUAAGGCGAACGUUAUGGUGAAGGCAUAGUCCAGGGAGUGGCGAAAGUCACACAAACCGG | 0.0229
25 | GUGCCUUGCGCCGGGAAACCACGCAAGGGAUGGUGUCAAAUUCGGCGAAACCUAAGCGCCCGCCCGGGCGUAUGGCAACGCUGAGCCAAGCUUCGGCGCCUGCGCCGAUGCAGGUGUAGCGACUAGACGGCACCCACCUAAGGCGAACGUUAUGGUGAAGGCAUAGUCAAGGGAGUGGCGAAAGUCACACAAACCGG | 0.00905
26 | GUGCCUUGCGCCGGGAAACCACGCAAGGGAUGGUGUCAAAUUCGGCGAAACCUAAGCGCCCGCCCGGGCGUAUGGCAACGCUGAGCCAAGCUUCGGCGCCUGCGCCGAUGCAGGUGUAGCGACUAGACGGCACCCACCUAAGGCGAACGUUAUGGUGAAGGCAUAGUCAAGGGAGAGGCGAAAGUCACACAAACCGG | 0.0123
27 | GUGCCUUGCGCCGGGAAACCACGCAAGGGAUGGUGUCAAAUUCGGCGAAACCUAAGCGCCCGCCCGGGCGUAUGGCAACGCUGAGCCAAGCUUCGGCGCCUGCGCCGAUGCAGGUGUAGCGACUAGACGGCACCCACCUAAGGCGAACGUUAUGGUGAAGGCAUAGUCAAGGGAGCGGCGAAAGUCACACAAACCGG | 0.014
28 | GUGCCUUGCGCCGGGAAACCACGCAAGGGAUGGUGUCAAAUUCGGCGAAACCUAAGCGCCCGCCCGGGCGUAUGGCAACGCUGAGCCAAGCUUCGGCGCCUGCGCCGAUGCAGGUGUAGCGACUAGACGGCACCCACCUAAGGCGAACGUUAUGGUGAAGGCAUAGUCAAGGGAGGGGCGAAAGUCACACAAACCGG | 0.00622
29 | GUGCCUUGCGCCGGGAAACCACGCAAGGGAUGGUGUCAAAUUCGGCGAAACCUAAGCGCCCGCCCGGGCGUAUGGCAACGCUGAGCCAAGCUUCGGCGCCUGCGCCGAUGCAGGUGUAGCGACUAGACGGCACCCACCUAAGGCGAACGUUAUGGUGAAGGCAUAGUCGAGGGAGUGGCGAAAGUCACACAAACCGG | 0.00807
30 | GUGCCUUGCGCCGGGAAACCACGCAAGGGAUGGUGUCAAAUUCGGCGAAACCUAAGCGCCCGCCCGGGCGUAUGGCAACGCUGAGCCAAGCUUCGGCGCCUGCGCCGAUGCAGGUGUAGCGACUAGACGGCACCCACCUAAGGCGAACGUUAUGGUGAAGGCAUAGUCGAGGGAGAGGCGAAAGUCACACAAACCGG | 0.0115
